The source of these data is publication PMC11182772, “A non-canonical role of the inner kinetochore in regulating sister-chromatid cohesion at centromeres” (The EMBO Journal, 2024).

Assay [1] concerns the target T1, GST-Scc1 (281–420)-SA2 (80–1060) sub-complex (UniProt O60216 281-420; Q8N3U4 80-1060).
T1 sequence (looked up) 1: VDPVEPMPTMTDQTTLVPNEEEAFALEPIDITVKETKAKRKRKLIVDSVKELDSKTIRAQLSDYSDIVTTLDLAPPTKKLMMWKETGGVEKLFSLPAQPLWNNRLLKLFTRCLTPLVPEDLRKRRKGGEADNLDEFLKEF
T1 sequence (looked up) 2: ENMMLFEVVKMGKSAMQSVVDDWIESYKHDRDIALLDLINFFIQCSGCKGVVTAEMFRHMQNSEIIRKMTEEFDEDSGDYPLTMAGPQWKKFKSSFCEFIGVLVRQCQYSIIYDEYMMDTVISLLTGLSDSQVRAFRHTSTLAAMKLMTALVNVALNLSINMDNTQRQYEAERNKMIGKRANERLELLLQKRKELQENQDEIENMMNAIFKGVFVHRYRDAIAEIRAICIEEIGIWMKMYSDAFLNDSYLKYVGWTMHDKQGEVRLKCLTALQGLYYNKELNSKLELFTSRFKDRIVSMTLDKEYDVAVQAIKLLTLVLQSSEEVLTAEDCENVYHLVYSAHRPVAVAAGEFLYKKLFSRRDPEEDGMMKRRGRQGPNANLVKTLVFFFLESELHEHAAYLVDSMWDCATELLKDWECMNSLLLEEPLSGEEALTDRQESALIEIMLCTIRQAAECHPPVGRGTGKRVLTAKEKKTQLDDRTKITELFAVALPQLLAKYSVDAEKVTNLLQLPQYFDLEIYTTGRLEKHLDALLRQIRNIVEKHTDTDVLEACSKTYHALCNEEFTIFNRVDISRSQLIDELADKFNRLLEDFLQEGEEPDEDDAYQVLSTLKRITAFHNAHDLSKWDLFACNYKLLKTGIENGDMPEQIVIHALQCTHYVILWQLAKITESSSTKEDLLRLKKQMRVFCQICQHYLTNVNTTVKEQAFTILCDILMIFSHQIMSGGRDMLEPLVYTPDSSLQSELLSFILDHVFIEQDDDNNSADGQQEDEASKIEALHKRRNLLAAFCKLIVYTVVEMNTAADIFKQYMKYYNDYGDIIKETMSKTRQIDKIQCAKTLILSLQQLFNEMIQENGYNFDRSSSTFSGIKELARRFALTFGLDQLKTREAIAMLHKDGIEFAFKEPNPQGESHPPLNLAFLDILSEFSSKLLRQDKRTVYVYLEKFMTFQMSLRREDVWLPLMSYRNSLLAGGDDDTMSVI
Kind of assay: pull-down; GST-Scc1 (281–420)-SA2 (80–1060) as bait, purified recombinant MBP fusion proteins as prey; immunoblot for MBP. The settings on record: both partners purified. Background: A western blot detects proteins with antibodies after separation by electrophoresis.

In assay [2] the target is T1, GST-Scc1 (281–420)-SA2 (80–1060) …. The assay can be described thus: pull-down; MBP fusion protein as bait, eluted GST-Scc1 (281–420)-SA2 (80–1060) as prey; binding 2 h, three washes of 5 min in P150 buffer; immunoblot for GST. The settings on record: both partners purified.

B1: MBP-Wapl (1–630) (domain or fragment, human, UniProt Q7Z5K2 1-630, looked up)
chain: MTSRFGKTYSRKGGNGSSKFDEVFSNKRTTLSTKWGETTFMAKLGQKRPNFKPDIQEIPKKPKVEEESTGDPFGFDSDDESLPVSSKNLAQVKCSSYSESSEAAQLEEVTSVLEANSKISHVVVEDTVVSDKCFPLEDTLLGKEKSTNRIVEDDASISSCNKLITSDKVENFHEEHEKNSHHIHKNADDSTKKPNAETTVASEIKETNDTWNSQFGKRPESPSEISPIKGSVRTGLFEWDNDFEDIRSEDCILSLDSDPLLEMKDDDFKNRLENLNEAIEEDIVQSVLRPTNCRTYCRANKTKSSQGASNFDKLMDGTSQALAKANSESSKDGLNQAKKGGVSCGTSFRGTVGRTRDYTVLHPSCLSVCNVTIQDTMERSMDEFTASTPADLGEAGRLRKKADIATSKTTTRFRPSNTKSKKDVKLEFFGFEDHETGGDEGGSGSSNYKIKYFGFDDLSESEDDEDDDCQVERKTSKKRTKTAPSPSLQPPPESNDNSQDSQSGTNNAENLDFTEDLPGVPESVKKPINKQGDKSKENTRKIFSGPKRSPTKAVYNARHWNHPDSEELPGPPVVKPQSVTVRLSSKEPNQKDDGVFKAPAPPSKVIKTVTIPTQPYQDIVTALKCRREDK
notes: human Wapl, residues 1–630, with all three FGF motifs; vector pMal-C2E; also called MBP-fused Wapl (1–630); source: E. coli BL21 (DE3), purified (amylose resin; on resin or eluted)
Take B1: in assay [1], the binding result is on record as “binds”.

B2: MBP-CENP-U (1–200) (domain or fragment, human, UniProt Q71F23 1-200, looked up)
chain: MAPRGRRRPRPHRSEGARRSKNTLERTHSMKDKAGQKCKPIDVFDFPDNSDVSSIGRLGENEKDEETYETFDPPLHSTAIYADEEEFSKHCGLSLSSTPPGKEAKRSSDTSGNEASEIESVKISAKKPGRKLRPISDDSESIEESDTRRKVKSAEKISTQRHEVIRTTASSELSEKPAESVTSKKTGPLSAQPSVEKENL
notes: human CENP-U, residues 1–200; vector pMal-C2E; also called MBP-fused CENP-U (1–200); source: E. coli BL21 (DE3), purified (amylose resin)
With B2, in assay [2], the binding result is reported as “binds”.

B3: MBP-Sgo1 (230–400) (domain or fragment, human, UniProt Q5FBB7 230-400, looked up)
chain: DPLVNMHIPENVQHNACQWSKDQVNLSPKLIQPGTFTKTKEDILESKSEQTKSKQRDTQERKREEKRKANRRKSKRMSKYKENKSENKKTVPQKKMHKSVSSNDAYNFNLEEGVHLTPFRQKVSNDSNREENNESEVSLCESSGSGDDSDDLYLPTCKYIQNPTSNSDRPV
notes: human Sgo1, residues 230–400; vector pMal-C2E; also called recombinant MBP-Sgo1 (230–400); source: E. coli BL21 (DE3), purified (amylose resin)
For B3, the binding result in assay [1] is reported as “binds”.
